T1: ZmMYB84 (MBP fusion) (Zea mays, UniProt B4FQD3 1-356)
T1 sequence: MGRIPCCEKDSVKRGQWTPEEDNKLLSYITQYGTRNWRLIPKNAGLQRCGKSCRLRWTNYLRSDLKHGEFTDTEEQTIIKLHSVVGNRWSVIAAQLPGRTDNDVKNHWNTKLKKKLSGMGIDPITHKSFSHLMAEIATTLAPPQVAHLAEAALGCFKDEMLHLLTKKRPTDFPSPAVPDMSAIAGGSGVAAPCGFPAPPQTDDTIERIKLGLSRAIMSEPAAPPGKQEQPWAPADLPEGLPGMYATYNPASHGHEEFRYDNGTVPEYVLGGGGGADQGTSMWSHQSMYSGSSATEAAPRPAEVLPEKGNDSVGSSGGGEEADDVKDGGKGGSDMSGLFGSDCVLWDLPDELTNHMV

B1: ZmTKPR1-2bio promoter probe (dsDNA)
DNA 1: ATTGCAAATCTACCCCCAACCAACCCAGCTTTGTATCTG
DNA 2: GCAGATACAAAGCTGGGTTGGTTGGGGGTAGATTTGCAA
B2: ZmTKPR1-1bio promoter probe (dsDNA)
DNA 1: TAGGAAGGAAGAAGGTTCCTGCAATGCATGTAAGGTTGGTAATTCATGCCTT
DNA 2: AAAGGCATGAATTACCAACCTTACATGCATTGCAGGAACCTTCTTCCTTCCT

Molecular target: T1, ZmMYB84 (MBP fusion)
Test: EMSA; EMSA conditions not stated (as in Hou et al., 2023)
Settings: protein: recombinant; tags: MBP (ZmMYB84 fused to the C-terminus of MBP; vector pMCSG7); label: biotin; 5' overhang 1 nt on each strand (so in the source)

| Binder | binding result |
| --- | --- |
| B1 | binds |
| B2 | binds |
